Assay results as given in patent US7670820B2, “Chitinase and uses thereof” (Academia Sinica, priority 2007, dated 2010).
Several values for one entry are separate records, joined by “and”; a condition that tells them apart may be missing. Identical values can stand only once. Like-named read-outs stand apart in the source and are kept apart here.

What was measured:
CpCHI = format: biochemical, Carica papaya
Description: (§1) Chitinase activity was generally measured using glycol chitin as a substrate. All enzymes other than CpCHI, were purchased from Promega (Madison, Wis.). Chemicals were purchased from Merck (Darmstadt, Germany). An enzyme solution (10 μL) was added to 100 μL of 1% (w/v) glycolchitin dissolved in 90 μL of a sodium acetate buffer (100 mM, pH 5.0), and was incubated at 30° C. for 3 hours. The reducing end group produced was measured calorimetrically at 420 nm with 200 μL of a potassium ferricyanide (K3Fe(CN)6) reagent according to the method descried in Boller et al., 1983, Planta. 157, 22-31. Reduced sugar levels were determined relative to N-acetyl-β-D-glucosamine standards of 0-150 μg mL^−1. One unit of chitinase activity is defined as the amount of enzyme producing 1 μmol reducing sugar per minute at 30° C. Substrate and enzyme blanks were also prepared in which the enzyme or substrate was incubated with a buffer. All measured values of absorbency were normalized against appropriate blank absorbencies. In this example, collodial chitin and chitosan were also used as substrate for subtract specificity analysis.
To analyze the effect of metals and other factors on chitinase activity, the enzyme was preincubated with a 10 mM of different metals and inhibitors. After 30 minutes, the remaining chitinase activity was measured in the manner described above.

E. coli AD494 = assay: Antibacterial activity, growth suppression (density at 600 nm); format: cell-based; conditions: E. coli AD494, LB medium
Description: (§2) Experiments were conducted to examine recombinant CpCHI's ability to suppress the growth of E. coli ED2566 or E. coli AD494. Briefly, the E. coli strain was grown at 37° C. in an LB medium with shaking at 225 rpm overnight. Then, the overnight culture was 100× diluted in a fresh LB medium containing 1 μM, 1.5 μM, 2 μM, 2.5 μM, or 3 μM CpCHI. A TE buffer (10 mM Tris-HCl pH7.5, 1 mM EDTA) was used as a control. Changes in density at 600 nm were monitored. The assays were conducts in triplicates and the average were recorded to examine the inhibition of bacterial growth.

E. coli ED2566 = assay: as above; format: cell-based; conditions: E. coli ED2566, LB medium
Description: as §2

[1] = Chitinase activity with glycol chitin as substrate (colorimetric reducing-sugar assay); format: biochemical
Description: as §1
The optimal pH of the chitiolytic activity of CpCHI was determined by incubating the purified recombinant enzyme (5 μg) at different pH (3-10) at 30° C. for 3 hours using glycol chitin as the substrate. An acetate buffer (100 mM) was used for pH 3-5, a phosphate buffer (100 mM) for pH 6˜7, a Tris-HCl buffer (100 mM) for pH 8, and a glycine-NaOH buffer for pH 9 and 10. The optimal temperature was determined by incubating the purified chitinase (5 μg) at different temperatures (10˜90° C.) at pH 6.0 for 3 hours using glycol chitin as the substrate. The highest activity was calculated as relative activity (RA) 100%.

[2] = Chitinase substrate specificity, chitosan as substrate; format: biochemical; conditions: relative to glycol chitin
Description: as §1

[3] = format: physicochemical
Description: The pH stability of recombinant CpCHI was determined. Briefly, purified recombinant CpCHI was incubated in buffers with pH from 3.0 to 10.0 at 30° C. for 3 hours. The residual activity was then determined at a standard condition (30° C. for 3 hours at pH 6.0). The results were averaged from three independent experiments.
The stability of recombinant CpCHI during long-term storage was examined. […] The enzyme retained more than 60% of its activity for 3 weeks at 30° C. and more than 50% activity for 3 weeks at 37° C. The results were also averaged from three independent experiments.

Sclerotium rolfsii [4] = assay: Antifungal activity, growth / hypha extension inhibition; format: cell-based
Description: (§3) The antifungal activity of recombinant chitinase protein was assessed by the hypha extension inhibition assay. Sclerotium rolfsii and Phytophthora sp. were provided from Hualien District Agricultural Research and Extension Station. Rhizoctonia solani and Alternaria brassicicola were provided by Dr. Jenn-Wen Hung of the Department of Plant Pathology of National Chung-Hsing University. A disc of each strain of fungus was removed from an actively growing fungal culture, and placed in the center of a fresh potato dextrose agar plate. After incubation at room temperature for 3 to 4 days, the recombinant chitinase or a control buffer (10 mM Tris-HCl pH7.5, 1 mM EDTA) were separately applied into a pool, which was 1 cm from the perimeter. The inhibition of the hypha extension was detected as a crescent-shaped zone of inhibition around the peripheral disc as the fungus grew out from the central disc.
(§4) The effects of recombinant CpCHI on the growth of Phytophthora sp., Sclerotium rolsii, and Rhizoctonia solani were examined using standard methods. Disease resistance assays were carried out using detached leaves of cabbage, bell pepper, and tomato that were inoculated with each of the pathogens. Cabbage (Brassica oleracea), bell pepper (Capsicam annuum), and tomato (Solanum lycopersicum) were obtained from Known-You Seed CO., LTD. An agar plug containing the pathogen was placed on the center of leaves. At day 1 day after inoculation, the detached leaves began to show lesions surrounded by yellow halos. Then, different solutions, including H2O, a TE buffer (10 mM Tris-HCl pH 7.5, 1 mM EDTA), or 5, 10, 15 μM CpCHI in the TE buffer was sprayed onto the leaves. At day 4 after inoculation, the pathogenesis inhibition by 5, 10, or 15 μM CpCHI was about 37%, 83%, and 98%, respectively (Table 3). […] Also, recombinant CpCHI inhibited the growth of these three fungi with as little as 15 μM, and the inhibited activity lasted for 7 days.

Rhizoctonia solani = assay: as above; format: cell-based
Description: as §3, §4

Phytophthora sp. = assay: as above; format: cell-based
Description: as §3, §4

[5] = Chitinase substrate specificity, collodial chitin as substrate; format: biochemical; conditions: relative to glycol chitin
Description: as §1

Alternaria brassicicola = assay: Inhibition of spore germination; format: cell-based; conditions: 24° C. for 24 hours
Description: Assays were also carried out to examine effects of CpCHI on Alternaria brassicicola, a fungus isolated from cabbages. The fungus was cultured in potato dextrose agar (DIFCO) for 2 weeks. After sporulation, the spores of the fungus were suspended in water to a concentration of 10^4 spores mL^−1. A fungal spore stock (approximately 500 spores) was cultured at 24° C. for 24 hours in the following solutions: (A) H2O, (B) TE buffer (10 mM Tris-HCl pH 7.5, 1 mM EDTA), (C) 5 μM CpCHI in TE buffer, and (D) 10 μM CpCHI in TE buffer. The inhibition of spore germination was examined under a light microscope at 200× amplification (Li et al., 2003, Plant Cell Physiol. 44, 1162-1167). The percentage of germination was calculated from 10 different observations. All experiments were conducted in triplicates.

[6] = HPLC analysis of chitin hydrolysis by CpCHI; format: biochemical
Description: Chitin hydrolysis was carried out in a phosphate buffer (100 mM, pH 6) at 30° C. with shaking. The concentrations of chitinase and glycol chitin suspension were 750 ng μL^−1 and 100 μg mL^−1, respectively. The reactions were quenched with 10% (v/v) acetic acid. […] The column was connected to an Agilent Technologies 1100 series HPLC system under the control of a Thermo Finnigan LCQ DECA electrospray mass spectrometer. The mass-to-charge ratios (m/z) of the expected oligosaccharides were selected as follows: Glc-NAc (221.9), (GlcNAc)2 (425.5), (GlcNAc)3 (627.6), (GlcNAc)4 (830.8), (GlcNAc)5 (1034.0), (GlcNAc)6 (1237.2), and (GlcNAc)7 (1440.0).

Sclerotium rolfsii [7] = assay: Disease resistance assay on detached leaves; format: in vivo; conditions: for pathogenesis inhibition: day 4 after inoculation
Description: as §4

[8] = enzyme preincubated 30 minutes with 10 mM reagent

Q: With [Cl][Hg][Cl] [HgCl2] as the molecule, how does the “reduction / inhibition of CpCHI activity” value (CpCHI; 10 mM) read?
A: completely

Q: And the “Relative activity (%) of CpCHI” value (CpCHI; [8])?
A: 0%

Q: Which “reduction / inhibition of CpCHI activity” value (CpCHI; 10 mM) does the source give for [Cl-].[K+] [KCl] here?
A: 7.67%

Q: What about the “Relative activity (%) of CpCHI” value (CpCHI; [8]) of the same molecule?
A: 92.33 ± 1.53%

Q: Which “reduction / inhibition of CpCHI activity” value (CpCHI; 10 mM) does the source give for O=[N+]([O-])[O-].[Ag+] [AgNO3] here?
A: 16.33%

Q: What about the “Relative activity (%) of CpCHI” value (CpCHI; [8]) of the same molecule?
A: 83.67 ± 2.52%

Q: Which “reduction / inhibition of CpCHI activity” value (CpCHI; 10 mM) does the source give for O=S(=O)([O-])[O-].[Cu+2] [CuSO4] here?
A: 60%

Q: What about the “Relative activity (%) of CpCHI” value (CpCHI; [8]) of the same molecule?
A: 40.00 ± 7.2%

Q: Which “Relative activity (%) of CpCHI” value (CpCHI) does the source give for O=C(O)CN(CCN(CC(=O)O)CC(=O)O)CC(=O)O [EDTA] here?
A: 93.33 ± 3.06%

Q: What about the “reduction / inhibition of CpCHI activity” value (CpCHI) of the same molecule?
A: 6.67%

Q: With [Cl][Fe]([Cl])[Cl] [FeCl3] as the molecule, how does the “reduction / inhibition of CpCHI activity” value (CpCHI; 10 mM) read?
A: 29.33%

Q: What about the “Relative activity (%) of CpCHI” value (CpCHI; [8]) of the same molecule?
A: 70.67 ± 3.06%

Q: Which results are given for [Cl][Mn][Cl] [MnCl2]?
A: reduction / inhibition of CpCHI activity (CpCHI; 10 mM): 64.7%; Relative activity (%) of CpCHI (CpCHI; [8]): 35.33 ± 3.06%

Q: Which “reduction / inhibition of CpCHI activity” value (CpCHI; 10 mM) does the source give for O=S(=O)([O-])[O-].[Zn+2] [ZnSO4] here?
A: 62.0%

Q: What about the “Relative activity (%) of CpCHI” value (CpCHI; [8]) of the same molecule?
A: 38.00 ± 3.61%

B1: CpCHI: novel class IV chitinase from papaya (Carica papaya) fruit, mature form expressed in E. coli and purified on Ni-NTA (protein, listed as Carica papaya)
chain: QNCGCAPNLCCSRFGFCGQGEAYCGEGCREGPCNKPSPTPGGGSSLAEIVTPDFFNGIINQAAAGCAGKSFCSRGGFLDAANSFPEFGKLGSVDDSKREIAAFFAHVTHETGHFCHIEEINGASHDYCDEGNTQYPCAPGKNYFGRGPIQLTWNYNYGAAGDALRLNLLGSPEMVARDAAVSFKTALWFWMKNVRPVINQGFGATIRAINGAIECNGGNPGTVQARIGYYRDYCAKFGVAPGENLSC
Q: What does the source list for B1?
A: IC50 (E. coli AD494): ~2500 nM; IC50 (E. coli ED2566): ~2500 nM; broad pH optima ([1]; 30° C., 3 hours, glycol chitin): 5.0-9.0; optimal pH for the enzyme activity ([1]; 30° C., 3 hours, glycol chitin): 6.0; optimal temperature for the enzyme activity ([1]; pH 6.0, 3 hours, glycol chitin): 30 °C; specific activity ([1]; recombinant protein after dialysis, spectrophotometric assay, glycol chitin): 14.8 U mg^−1; Relative activity toward glycol chitin ([1]; substrate glycol chitin): 100%; activity maintained at different temperatures ([1]; temperatures between 10-50° C.): at least 80%; Relative activity toward chitosan [2]: 11% and 11.33 ± 2.52%; activity retained during long-term storage ([3]; 3 weeks at 30° C.): more than 60%; activity retained during long-term storage ([3]; 3 weeks at 37° C.): more than 50%; antifungal activity (Sclerotium rolfsii [4]): great antifungal activity; concentration that inhibited growth (Sclerotium rolfsii [4]): 15 µM; duration of the inhibited activity (Sclerotium rolfsii [4]; 15 μM): 7 days; antifungal activity (Rhizoctonia solani): great antifungal activity; concentration that inhibited growth (Rhizoctonia solani): 15 µM; duration of the inhibited activity (Rhizoctonia solani; 15 μM): 7 days; antifungal activity (Phytophthora sp.): great antifungal activity; concentration that inhibited growth (Phytophthora sp.): 15 µM; duration of the inhibited activity (Phytophthora sp.; 15 μM): 7 days; Relative activity toward collodial chitin [5]: 59% and 58.67 ± 5.03%; inhibition of spore germination (Alternaria brassicicola; 5 μM): 50%; inhibition of spore germination (Alternaria brassicicola; 10 μM): 98%; hydrolyzed products of glycol chitin ([6]; after 1 hour): (GlcNAc)3; hydrolyzed products of glycol chitin ([6]; after 2 hours): (GlcNAc)3, (GlcNAc)2, and (GlcNAc); hydrolyzed products of glycol chitin ([6]; final products): (GlcNAc)2 and (GlcNAc); pathogenesis inhibition (Sclerotium rolfsii [7]; 5 μM): about 37%; pathogenesis inhibition (Sclerotium rolfsii [7]; 10 μM): ~83%; pathogenesis inhibition (Sclerotium rolfsii [7]; 15 μM): ~98%; Percentage of the symptom appearing (Sclerotium rolfsii [7]; Cabbage detached leaves, 5 μM sprayed): 55.33 ± 6.11%; Percentage of the symptom appearing (Sclerotium rolfsii [7]; Cabbage detached leaves, 10 μM sprayed): 14.33 ± 5.13%; Percentage of the symptom appearing (Sclerotium rolfsii [7]; Cabbage detached leaves, 15 μM sprayed): 1.66 ± 2.88%; Percentage of the symptom appearing (Sclerotium rolfsii [7]; bell pepper detached leaves, 5 μM sprayed): 66.67 ± 7.34%; Percentage of the symptom appearing (Sclerotium rolfsii [7]; bell pepper detached leaves, 10 μM sprayed): 23.33 ± 7.64%; Percentage of the symptom appearing (Sclerotium rolfsii [7]; bell pepper detached leaves, 15 μM sprayed): 3.33 ± 2.77%; Percentage of the symptom appearing (Sclerotium rolfsii [7]; tomato detached leaves, 5 μM sprayed): 65 ± 15%; Percentage of the symptom appearing (Sclerotium rolfsii [7]; tomato detached leaves, 10 μM sprayed): 13.33 ± 10.41%; Percentage of the symptom appearing (Sclerotium rolfsii [7]; tomato detached leaves, 15 μM sprayed): 1.66 ± 1.32%
